Experimental data from the DeepSol protein solubility set.

assay: soluble on expression in E. coli; label from the status in PepcDB or PDB records

Row | Sequence | soluble on expression in E. coli
1 | MSFRPEYKEYFKQGATARIYNGAFEDAGFYDEVDIKEFEYSREEKTFYYPCPCGDRFEISLEDLRNGEVVARCPSCSLIVCTVYEAEDLEKYL | not soluble
2 | MSFSKLLDLLTGREAQRTAIDWDAKYGTDTRSTVELHGLTISHDSRRFGERYQASDPSALSDALAFVGLDPRSYRFVDLGCGKGRMLIVAAELGFKSCIGVEFADELAQTAKANAAAAGFDTISVVHGDAGAYAFQDEPFVLYLFNPFSHQIMQRVRDNLLKLRRAEYYVIYKNPRERRIFDEMQTLRYLGTPPAHKGVWGVHVWGPRGELEHHHHHH | not soluble
3 | MSFVSVLSIAHKKGRGWPLLDMEIRELCCMLHKVFYLVRCTGIGFDFFRKFVLILFLAYTFKTIDSMASERKLKKQITGAISEVFTDAFLLKLFVKEEKNAEVETILNRILQLQDTTIAKIRCNDGKHNPALVKKYYRRLVDDFKEELSEIVKSISACASDN | not soluble
4 | MSGIFSVYVGNAPFQTTEEELGNFFSSIGQINNVRIVCDRETGRPRGFAFIEFAEEGSAQRAVEQMNGAEFNGRPLRVNLANK | soluble
5 | MSGKERNLPTHRISRFSKFASLATRVAGNVIAEGTKQIAKGNRPKAKDLLLTPQNIARLTDQLAHLRGAAMKLGQMLSMDAGDILEPELAEILARLRSNADPMPSKQLNSVMVNALGEQWKSAFLAFNFKPIASASIGQVHQAYSDAGDNLAVKVQYPGIRKSIDSDVDNVGTLLKIVGLIPESVDYKGLLEEAKKQLYDEANYEREAQFACRYHEALQGHPHFVVPKIYPEISSQSVLAMSFIQGTPIEKIANYDQETRDFVMHNLLELLFKELFEFKMVQTDPNFANYLYLEESKQIGLLDFGATREYSERFSSGYRQAFSSVVNDDEQGLNDALEQIGFFAQSIKPEQRMAILDLVKMACEPMLIDEAYDFKASGLAQKLREAGTILSMEQDYWHTPPADAIFLHRKIGGMYLLAARIGAKVNIRRLVQPYLKINSGLEHHHHHH | not soluble
6 | MSGQSLTDRITAAQHSVTGSAVSKTVCKATTHEIMGPKKKHLDYLIQCTNEMNVNIPQLADSLFERTTNSSWVVVFKSLITTHHLMVYGNERFIQYLASRNTLFNLSNFLDKSGLQGYDMSTFIRRYSRYLNEKAVSYRQVAFDFTKVKRGADGVMRTMNTEKLLKTVPIIQNQMDALLDFNVNSNELTNGVINAAFMLLFKDAIRLFAAYNEGIINLLEKYFDMKKNQCKEGLDIYKKFLTRMTRISEFLKVAEQVGIDRGDIPDLSQAPSSLLDALEQHLASLEGKK | soluble
7 | MSGRKIAAATVQNRTQTPFWNWLKQKLLASDRLPITPPPGIAGPDGKAVYQNPLRFPNTQSARPCSAELPALPGGVHHKLADNYYLTRDGRRNVDAPKVLYSSGEFVGGEKAQPAQVNQGVATNFGLTAPTPGFGAEWSRSKQNELASQQKNTEFEYLQRFDKFTKSA | not soluble
8 | MSGRLIGKVALVSGGARGMGASHVRAMVAEGAKVVFGDILDEEGKAVAAELADAARYVHLDVTQPAQWTAAVDTAVTAFGGLHVLVNNAGILNIGTIEDYALTEWQRILDVNLTGVFLGIRAVVKPMKEAGRGSIINISSIEGLAGTVACHGYTATKFAVRGLTKSTALELGPSGIRVNSIHPGLVKTPMTDWVPEDIFQTALGRAAEPVEVSNLVVYLASDESSYSTGAEFVVDGGTVAGLAHNDFGAVEVSSQPEWVT | not soluble
9 | MSHLKDPTTQYYTGEYPKQKQPTPGIQAKMTPVPDCGEKTYVGSGRLKDRKALVTGGDSGIGRAAAIAYAREGADVAISYLPVEEEDAQDVKKIIEECGRKAVLLPGDLSDEKFARSLVHEAHKALGGLDIMALVAGKQVAIPDIADLTSEQFQKTFAINVFALFWLTQEAIPLLPKGASIITTSSIQAYQPSPHLLDYAATKAAILNYSRGLAKQVAEKGIRVNIVAPGPIWTALQISGGQTQDKIPQFGQQTPMKRAGQPAELAPVYVYLASQESSYVTAEVHGVCGGEHLG | soluble
10 | MSHPALTQLRALRYFDAIPALEPHLLDWLLLEDSMTKRFEQQGKRVSVTLIREAFVGQSEVEEASGLLPSESRYWLREILLCADGEPWLAGRTVVPESTLCGPEQVLQHLGKTPLGRYLFTSSTLTRDFIEIGRDATLWGRRSRLRLSGKPLLLTELFLPASPLY | not soluble
11 | MSHPVVIKENMTVYDAICTIFLEDVSTLFITNENNDFVGVCSRKDLLRASMIGEDIHTMPISVNMTRMPHVSYLKEQELVIYAANQMIDKEIDSLPIVRPKENDKFEVIGRISKTTITKLFVSLFKE | not soluble
12 | MSHTSNFTRNFHCRSSSNKRSESEKSPSFSKKRRRARALDPDEFIPPVEGPDVQKIDSETSRKCHSIKGFNVNKDGSVRRLEDNSKYEHNKSSRQKRSEAAPLENSEGKSTKSRKLSSPSKKSNKKSISKKSDRSKVSKVKRSPKTDKELEKKPSSIYERKDVDGHDDLKVPNMRSRKHSENSKNLFDYFFWFSLQTSKMKSLNYIEMLSNGDIKAPISAVFCPTRGSSTAPNCFAIIGVWRRRKKRSVSKLIKIGFSIPQSMEILTKKGQLFPNLITRQIPMEIRAVNFAHLHFSHRLVDFASGDDVLCDRIQHTIHVQS | not soluble
13 | MSHVQAVIFDAFGTITRIENARHPFRQLLKLGIAQGRRPKPDDASMLMRHPWGLAQAADHFGIDVTPAELARIQAELDAEVASIQPFADALACIEALQAHGLKVAVCSNLARPYGAAVKRIFPGLESYGFSYEIGTLKPDRRIYEAALTELAVDACKVWMIGDSQRCDRDGPIALGIKGHYLNRTGAGSPSDFRDLMAFKHSVFESRSP | not soluble
14 | MSIAQEFEKANTHYSSNFTKRDLPLPPARKVAVVICMDARIDPAASLGLTEGDAHVIRNAGGRASDALRSVIISQRLLGTREIVVVHHTDCGMLTFSDNDLRGIVAKETGHNVDHFAFLPFGDLEKSVKDDVEFFKRNPLVLDVPVTGYIYDVKSGAINKVDS | soluble
15 | MSIAVGMIETRGFPAVVEAADSMVKAARVTLVGYEKIGSGRVTVIVRGDVSGVQASVSAGIEAANRVNGGEVLSTHIIARPHENLEYVLPIRYTEEVEQFRTYGVPRGLEHHHHHH | soluble
16 | MSICTRKFINKLGFPNFGGESVQIAISGGKGWNWKIYSRHKSCSKMGVKRTLADLDVEAPNDHLLLGVSLANEEPVYQFMPHFDYLKCIKRRKCAKVCEEHAIVTLKDGTPFLMPTLCSGCRACEIVCPVPGAIREMAGDPLEHHHHHH | not soluble
17 | MSIEIANIKKSFGRTQVLNDISLDIPSGQMVALLGPSGSGKTTLLRIIAGLEHQTSGHIRFHGTDVSRLHARDRKVGFVFQHYALFRHMTVFDNIAFGLTVLPRRERPNAAAIKAKVTKLLEMVQLAHLADRYPAQLSGGQKQRVALARALAVEPQILLLDEPFGALDAQVRKELRRWLRQLHEELKFTSVFVTHDQEEATEVADRVVVMSQGNIEQADAPDQVWREPATRFVLEFMGEVNRLQGTIRGGQFHVGAHRWPLGYTPAYQGPVDLFLRPWEVDISRRTSLDSPLPVQVLEASPKGHYTQLVVQPLGWYNEPLTVVMHGDDAPQRGERLFVGLQHARLYNGDERIETRDEELALAQSA | soluble
18 | MSIEIKTNSVEPIRHTYGHIARRFGDKPATRYQEASYDIEAKTNFHYRPQWDSEHTLNDPTRTAIRMEDWCAVSDPRQFYYGAYVGNRAKMQESAETSFGFCEKRNLLTRLSEETQKQLLRLLVPLRHVELGANMNNAKIAGDATATTVSQMHIYTGMDRLGIGQYLSRIALMIDGSTGAALDESKAYWMDDEMWQPMRKLVEDTLVVDDWFELTLVQNILIDGMMYPLVYDKMDQWFESQGAEDVSMLTEFMRDWYKESLRWTNAMMKAVAGESETNRELLQKWIDHWEPQAYEALKPLAEASVGIDGLNEARAELSARLKKFELQSRGVSA | soluble
19 | MSIFNGIKEEQMDILREVGNIGAGHSASAMAQLLNRKIDMEVPFAKLLSFDELVDFFGGADVPVASIFLRMEGDLTGSMFFIMPFFQAEQFIRELIGNPDFDIEDLGEDHMSSSALHELGNILAGSYLTALADLTKLQLYPSVPEVSLDMFGAVISEGLMELSQVGEHAIVVDTSIFDQSHQQELKAHMFMLPDYDSFEKLFVALGASL | soluble
20 | MSIKIKNAVEIEKMRVAGRLAAEVLEMIEPHVKAGVTTEELDQICHKYITEVQGAIPAPLNYHGFPKSICTSINHIVCHGIPASEDTYFGQIQRPAVLRDGDILNIDITVIKDGYHGDTSKMFLIGDVSIEDKRLCHVAQECLYLALKQVKPGVQLGEIGTTIEKHIKTNNKNNPRFKFSIVRDYCGHGIGAEFHEEPQVVHYKNSDRTVLREGMIFTIEPMINAGKFGCRLDDEDSWTVYTADGKKSAQWEHTILVTATGCEILTLRSEESLPRILNNA | not soluble
21 | MSIKQWPEGERPREKLLERGAAALSDAELLAILLRVGTRGMSAVDLARYLLQEFGSLGRLMSAEVGKLSAYKGMGTASFTQFAVVREIGRRILAEELQESIVLSDPDTVADYLRFHLGQEKVEVSVALLLNRQNQLIAVRELSRGTVAENTIYIREIVKLALDEYADSLIIAHNHPGGSPEPSQEDIMFTRRLAQAMSLVDVSLLDHFIVTSQSVCSFRQLGLMP | not soluble
22 | MSILDTEVTLINGEKASMDQWAGHCLLIVNTASECGYTPQLETLEELYEDYAMRGFFVIGVPCNQFGEEEPGKDAQVARRYEEKFGVRFPLLAKSDVNGPNTIELYKKLKGDGPDIEWNFEKFIVAPSGEVVGRFAPSLDPDDMKIINVLEEYLPI | soluble
23 | MSILMPVRNEERFLPAALASLCRQSLTAWELIVVDDGSTDDTPELLRVAAARDRRVRVFNNAGAGLVDALNYGLAHCRAELVARMDGDDISHPQRLERQAAALDADPGLGLVATRFRHFPRHSVGLGMRAYEEWQNGLLTHEEIMRDRFVESPVVHPSVMARRQALTDAGGYRKTGWAEDYDLWLRLAAGGVRFTRLPEVLFFWRERPERATRTMGEYAADAFRACKIHHLCQGFLLGVDNVTLAGAGLEGRAWQRALAREGVRVGRWLDVDPRKQGRILHGAPVTAPDDVRAGAEKILVTVGTRGARDGVRAWARRAGLREGEDFVCVTLEHHHHHH | not soluble
24 | MSIQKLLSKARKAIQDFDMIQENDKIAVGLSGGKDSLTLLHILKSYQRFSPQNFELIAITLNTGGVDNSPLDKLCKEINVPFYEFQTDIKEIVFDIRQEKNPCALCANLRRGALNDNAKKLGCNKVALGHHKDDAIETFLMSMFYEGRVNCFSPKTYLDRQDLTVIRPMVYIEEYMTKKISKDSNYPIITNPCPANGHTRREYIKNLIANLNKEMPDFKRNVFGALNNSEKLFIWDKEKIKNFK | not soluble
25 | MSIQQIIEQKIQKEFQPHFLAIENESHLHHSNRGSESHFKCVIVSADFKNIRKVQRHQRIYQLLNEELNHSIHALALHLFTPEEWKAQNETVPHSTKCAGIGRLEHHHHHH | soluble
26 | MSIRIDRQRCIGCGKCAEICPGNLIVIDEDKKAFVRDPRDCWGCAACVKECKFSAIRYFLGAEIGGNGTTMYVEKENDEIMYWYFEKPSGEKEMIVQNLKDNTTYLEHHHHHH | not soluble
